Patent US8688427B2, “Enzyme catalysts for diels-alder reactions” (University of Washington, priority 2008, dated 2014)

Assays:
Format in all cases: biochemical
[1] = Diels-Alder activity assay with purified protein, LC-MSMS product detection; conditions: 0.1 mM diene, 3 mM dienophile, PBS, 298K, 20 μM protein
Method: The observed velocity for each mutant was normalized by the velocity of DA—20—00 in order to determine the effective rate enhancement conferred by each mutation. The reactions were done at 1 mM diene, and 10 mM dienophile, PBS, 298K, and 100 μM protein.
Mutations showing enhanced activity on DA—20—04 were sequenced, grown large scale, and assayed. The assay was done at 0.1 mM dieine, 3 mM dienophile, PBS, 298K, and 20 μM protein.
The Diels-Alder reactions were performed in PBS, at 25° C., with 4% DMSO. The DMSO came from the diene, for which the stock solution (100 mM) was made in DMSO and always diluted such that the final reaction would contain 4% DMSO. After incubation of the desired amount of diene and dienophile in the presence or absence of the protein, time points were taken of the reaction (5 μL) and quenched in a solution of 80:20 acetonitrile:water with 0.1% formic acid and 1 mM Benzoic Acid (95 μL). This reaction was incubated for 5 minutes and then the precipitated protein filtered using a Millipore multiscreen solvinert filter plate (Product Number: MSRLN0450). 20 μL of the filtered quench solution was then injected and analyzed using a liquid chromatography-tandem mass spectroscopy (LC-MSMS) assay.
A total of 43 variants were assayed using the standard activity assay. The observed activities are described in Table 2. In Table 2, the Expression column provides the number of times the mutant was expressed; the Observed column reports the raw signal level out of the mass-spec for the product (the Observed column is not normalized nor background corrected); the Concentration column provides the concentration of the protein after large-scale expression. […]

[2] = Plate assay of crude cell lysate, second round of active site optimization; conditions: Combinatorial Mutation Results; 4 colonies/Kunkel assayed
Method: Since it was unreasonable to prepare the 176 enzyme variants in large scale, a plate assay was developed in which colonies directly from a Kunkel mutagenesis (8) reaction could be screened. Kunkel mutagenesis reactions were transformed directly into BL21(DE3)™ (Invitrogen) in order to generate each of the desired mutants. Four colonies from each plated reaction was picked and grown at 37° C. in 0.5 mL of LB-Kanamycin overnight. […]. This culture was grown for 2-3 hours at 37° C., after which 50 μL of 10 mM IPTG was added to each well (0.5 mM Final) in order to induce expression. The cells were then grown for 24 hours at 18° C., harvested, and stored at −20° C. until ready for assaying. To assay, crude cell lysate was prepared by resuspending the cells in 500 uL of PBS and lysing through 3 freeze/thaw cycles (15 minutes at −80° C., 40 minutes at 25° C.), followed by centrifugation at 4000 rpm for 30 minutes. […] Samples from each reaction were then quenched and product detected using a liquid chromatography-tandem mass spectroscopy.
To help remove some of this noise, samples showing WT activity were discarded if at least 2 of the other colonies picked from that Kunkel reaction did show an effect on activity (either greater or less than WT). […] The relative effect of each mutation was calculated. […]

[3] = Production run and effects of knocking out the catalytic residues; conditions: higher enzyme concentrations: 1 mM diene, 50 mM dienophile, 200 μM protein, PBS, 298K
Method: The reaction was carried out in 1 mM diene, 50 mM dienophile, 200 μM enzyme, in PBS at 298K. The proteins assayed are DA—20—10 (υ), Y121F (▴), Q195E (x), and tela scaffold (*), uncatalyzed (λ).
To determine whether the observed activity depends on the designed active site, we investigated the contributions of the designed catalytic residues in DA—20—10 to catalysis. Glutamine 195 was mutated into a glutamate (Q195E) and tyrosine 121 was mutated into a phenylalanine (Y121F). We had originally incorporated a glutamine rather than a glutamate at this position, despite the fact that the carboxylate should make a stronger hydrogen bond with the diene carbamate. This hydrogen bond should increase the energy of the diene HOMO (and thus decrease the energy gap with the dienophile LUMO), and more greatly stabilize the transition state. However, we were concerned that the substantial free energy cost of desolvating the carboxylate would considerably reduce binding affinity for the diene. […] The Y121F mutation decreases catalytic activity by 27-fold, consistent with the removal of a hydrogen bond that contributes to dienophile binding, stabilizes the dienophile LUMO, and is enhanced in the transition state.
Timepoints were taken and measured as previously described over a period of 60 hours.

[4] = Substrate specificity, LC-MS of product peak area formed per hour; conditions: 0.2 mM diene, 10 mM dienophile, 60 μM protein, PBS, 298K
Method: FIG. 19 illustrates the substrate specificity of DA—20—10 and a single mutant of DA—20—10, H287N. Reactions were carried out with 0.2 mM diene 1 (FIG. 1), and 10 mM of one of the six dienophiles depicted in PBS at 298K in the absence or presence of 60 μM DA—20—10 or DA—20—10_H287N. The depicted values in the figure are the mean (bars) and standard deviation (error bars) of four independent measurements of the product peak area (arbitrary units) formed per hour, determined using a liquid chromatography-mass spectroscopy assay.
To experimentally determine substrate specificities each dienophile from FIG. 19 was either purchased or synthesized. The dienophiles were assayed in the presence or absence of 60 μM DA—20—10 or the H287N mutant over 30 hours with 10 mM dienophile and 0.2 mM diene at 298K in a PBS solution. A sample of the reaction was taken at four different time points, quenched, and filtered as previously described. To detect product a liquid chromatography-mass spectroscopy assay was used. […] The average area of each detected peak formed per hour was used to determine the relative amount of product formed with and without enzyme.
Besides stereoselectivity, the level of control over a chemical reaction by a designed enzyme is reflected by its substrate specificity. […] The activity against each of the substrates was measured using a liquid-chromatography mass spectroscopy assay.

B1: DA_20_10: DA_20_04 with A272N, Q149R, A173C (protein)
chain: MEIPVIEPLFTKVTEDIPGATGPVFDKNGDFYIVAPYVEVNGKPAGEILRIDLKTGKKTVICKPEVNGYGGIPIGCQCDRDANQLFVADMRLGLLVVQTDGTFEEIAKKDSEGRRMQGCAYCAFDYEGNLWITAPAGEVAPADFTISLREKFGSIYCFTTDGQMIQVDTAFQCPAGIAVRHMNDGRPYQLIVAEQPTKKLWSYDIKGPAKIENKKVWGHIPGTHKGGAAGMDFDEDNNLLVANWGSSHIEVFGPDGGQPKMRIRCPFEKPANLHFKPQTKTIFVTEHENNAVWKFEWQRNGKKQYCETLKFGIFGSLEHHHHHH
modifications: Enzyme catalyst for Diels-Alder reaction
notes: DA_20_04 with A272N, Q149R, A173C
For B1, the “product formed per hour” value [1] was 154.9 nM of product/hour, the “Relative Effect on Activity” value [2] was 7.96 and the “diene substrate converted to product” value [3] was “more than 80%”. The “substrate specificity (in words)” value [4] was “highly favor the substrate for which it was designed”.
